# From patent US20250332278A1, “MULTIVALENT DISPLAY OF APOAI PEPTIDE ON NANOPARTICLES AGAINST ATHEROSCLEROSIS” (The Regents of the University of California, priority 2022, published 2025)
# B1: Qβ-4FN: bacteriophage Qβ VLP conjugated to ApoAI peptide 4FN via SM(PEG)4 (conjugate)
# chain: AKLETVTLGNIGKDGKQTLVLNPRGVNPTNGVASLSQAGAVPALEKRVTVSVSQPSRNRKNYKVQVKIQNPTACTANGSCDPSVTRQAYADVTFSFTQYSTDEERAFVRTELAALLASPLLIDAIDQLNPAY
# peptide: CSGGGDWFKAFYDKVAEKFKEAF
# B2: T-4FN: TMV-Lys nanoparticle with 4FN ApoAI peptide conjugated to surface lysines via SM(PEG)4 maleimide-thiol chemistry (conjugate)
# chain: SYSITTPSQFVFLSSAWADPIELINLCTNALGNQFQTQQARTVVQRQFSEVWKPSPQVTVRFPDSDFKVYRYNAVLDPLVTALLGAFDTRNRIIEVENQANPTTAETLDATRRVDDATVAIRSAINNLIVELIRGTGSYNRSSFESSSGLVWTSGPK
# peptide: CSGGGDWFKAFYDKVAEKFKEAF
# B3: TMV (protein)
# chain: MSYSITTPSQFVFLSSAWADPIELINLCTNALGNQFQTQQARTVVQRQFSEVWKPSPQVTVRFPDSDFKVYRYNAVLDPLVTALLGAFDTRNRIIEVENQANPTTAETLDATRRVDDATVAIRSAINNLIVELIRGTGSYNRSSFESSSGLVWTSGPK
# What was measured:
# [1] = test system: SVEC cells; test: ROS assay; assay type: cell-based; conditions: 8 h treatment (0.5 μM particles or matched free peptide), then ox-LDL 4 h
# Protocol: ROS assay. SVEC cells (ATCC) were seeded in four-compartment 35-mm CELLview glass-bottom dishes or 96-well plates at 6×10^4 cells/mL in 500 μL DMEM and were allowed to reach ˜80% confluence. The medium was then removed, and the cells were washed once with PBS before incubation with VLPs/VNPs for 8 h. Applicant then added 100 μg/mL ox-LDL for 4 h to induce oxidative stress and detected ROS using a CellROX Green Reagent Kit. Images were captured using a Nikon AiR confocal microscope with a 20×, 0.75 numerical aperture dry objective.
# [2] = Dynamic light scattering of VLP/VNP conjugates; assay type: physicochemical; conditions: 1 mg/mL in 0.01 M KP buffer
# Protocol: Dynamic Light Scattering (DLS). The hydrodynamic diameter of VLPs/VNPs conjugates were probed using a Zetasizer Nano ZSP/Zen5600 instrument (Malvern Panalytical, Malvern, UK). Particle hydrodynamic diameter was calculated as the weighted mean of the intensity distribution and samples were analyzed at 1 mg/mL concentration in 0.01 M KP buffer.
# [3] = target: ATP-binding cassette transporter A1 (ABCA1) on J774 foam cells (UniProt P41233); test: cell-based or functional assay
# [4] = test system: J774 foam cells (ABCA1-mediated cholesterol efflux); test: J774 cholesterol efflux assay; assay type: cell-based
# Protocol: J774 Cholesterol efflux assay. Cholesterol efflux was measured from J774 cells (ATCC) as previously described.^23 Briefly, J774 cells were seeded in 96-well plates at 1×10^5 cells/100 μL in DMEM (Corning) with 10% (v/v) fetal bovine serum (FBS) and 1% (w/v) penicillin-streptomycine (P/S). Cells were incubated until they reached ˜80% confluence. After two rinses with FBS-free DMEM containing 1% (w/v) P/S they were incubated for 48 h in 200 μL FBS-free DMEM containing 40 μg/mL acetylated low-density lipoprotein (AcLDL), 2 μg/mL Sandoz inhibitor, 1% (w/v) P/S, and 5% (v/v) human lipoprotein-deficient serum (LPDS) to produce foam cells. Excess lipids were removed by two rinses as above, and foam cells were equilibrated for 12 h in 200 μL FBS-free DMEM, 2 μg/mL Sandoz inhibitor, 0.3 mM CPT-cAMP, 1% (w/v) P/S, and 5% (v/v) human LPDS. After two further rinses, cholesterol efflux was initiated by adding different VLP/VNP or peptide treatments in FBS-free DMEM containing 1% (w/v) P/S and 5% (v/v) human LPDS and incubating for 15 h. The medium was then collected, centrifuged (1000×g, 10 min, 4° C.) and the cholesterol content of the supernatant was determined using the Amplex assay kit. Cells were washed three times with ice-cold PBS, lysed using 200 μL of Cytobuster lysis buffer, and the cholesterol content of the lysate was determined using the Amplex assay kit. Cholesterol efflux was calculated by dividing the amount of cholesterol in the medium by the total cholesterol content of the medium and lysate.
# [5] = test system: SVEC cells; test: Wound healing assay under oxidative stress; assay type: cell-based; conditions: 0.5 μM, 8-h treatment, 4-h 50 μg/mL ox-LDL, versus control (serum-free medium)
# Protocol: Wound healing assay. SVEC cell migration was investigated using a Radius 96-well kit (Cell Bio Labs). Applicant seeded 3×10^4 cells in 200 μL DMEM per well and allowed the cells to reach ˜80% confluence. After removing the Radius Gel, cells were allowed to migrate for 24 h in the presence of various treatments. Bright-field phase contrast images were acquired after 0, 12 and 24 h using an EVOS FL microscope fitted with a 10× objective (n=6 cells per group). Percentage wound closure was calculated by tracing the wound perimeter in ImageJ to calculate the area at t=12 or 24 h and dividing by the initial starting area at t=0 h.
# Applicant therefore evaluated the effect of T-4FN on wound healing using SVEC cells.
# [6] = BODIPY-cholesterol binding assay (DLS and fluorescence); conditions: for PDI after incubation with BODIPY-cholesterol / Zav after incubation with BODIPY-cholesterol: 20 uM BODIPY-cholesterol; for PDI after incubation with BODIPY-cholesterol: 2 h at 37° C.; for size change / cholesterol binding on incubation with BODIPY-cholesterol: relative to cholesterol-free controls
# Protocol: BODIPY-Cholesterol Binding assay. A fluorescent cholesterol, BODIPY-cholesterol or 23-(dipyrrometheneboron difluoride)-24-norcholesterol was used to examine the HDL biomimics' ability to uptake cholesterol. VNP samples (500 μg) and equimolar HDL were incubated with 20 uM BODIPY-cholesterol for 2 hours at 37° C. on a shaker at 150 rpm in 0.5 mL of 10 mM KP/DMSO. After incubation, samples were purified by centrifuge using 100 kDa molecular-weight cutoff Amicon spin-filters to remove free, unbound cholesterol. Samples were analyzed for size on DLS (see above) and fluorescence before and after BODIPY-cholesterol binding using 480/508 nm excitation/emission parameters on a Tecan Plate Reader.
# To investigate the ability of the TMV particles to bind cholesterol, Applicant mixed them with fluorescent BODIPY cholesterol for 2 h at 37° C. in 0.01M KP/DMSO (50:50).
# The cholesterol-bound nanoparticles were separated from free cholesterol by centrifugation in spin filters with a 100-kDa cutoff. Samples without cholesterol were incubated as a negative control. Purified fractions were analyzed by DLS and fluorimetry.
# [7] = test system: J774 foam cells; test: TMV-ApoAI distribution during cholesterol efflux from J774 foam cells (confocal fluorescence microscopy); assay type: cell-based; conditions: 0.5 μM 5FAM-labeled particles, 12 h
# Protocol: TMV-ApoAI distribution during cholesterol efflux from J774 foam cells. Applicant seeded 1×10^5 J774 cells in 500 μL DMEM containing 10% (v/v) FBS and 1% (w/v) P/S into each zone of a four-compartment 35-mm CELLview glass-bottom dish, and allowed them to reach ˜80% confluence. Cells were rinsed twice with 500 μL FBS-free DMEM containing 1% (w/v) P/S and incubated for 48 h in 200 μL FBS-free DMEM containing 40 μg/mL of fluorescence-labeled acetylated low-density lipoprotein (Dil-AcLDL), 2 μg/mL Sandoz inhibitor, 1% (w/v) P/S, and 5% (v/v) human LPDS to produce labeled foam cells. After two rinses as above, foam cells were equilibrated for 12 h in 200 μL FBS-free DMEM containing 2 μg/mL Sandoz inhibitor, 0.3 mM CPT-cAMP, 1% (w/v) P/S, and 5% (v/v) human LPDS. After two further rinses, the cells were treated with 100 μL of 5FAM-labeled treatments and controls in FBS-free DMEM containing 1% (w/v) P/S and 5% (v/v) human LPDS. After 12 h, the cells were washed twice with 500 μL PBS and then fixed for 10 minutes at room temperature using a PBS solution containing 10% (w/v) PFA, 25% (w/v) glutaraldehyde. Cells were then twice washed with PBS and subsequently stained for 45 min with 300 μL of wheat-germ agglutinin AlexaFluor 647 (WGA-647) prepared in PBS and 5% (v/v) goat serum at a 1:500 dilution. Cells were then twice washed with PBS and then stained with 300 μL DAPI dye (5 μg/mL in PBS) for 20 min. Cells were washed twice with PBS and then imaged using a Nikon AiR confocal microscope with a 20×, 0.75 numerical aperture dry objective.
# A fluorescently labeled T-4FN-5FAM was used to promote cholesterol efflux from fluorescently-labeled foam cells (FIG. 5A and FIG. 15B). Cholesterol and T-4FN-5FAM fluorescence was quantified using Nikon AR Elements Analysis software's 3D volume viewer tool and plotted in a bar graph (FIG. 5C and FIG. 5D).
# UniProt P41233, sequence (P41233 whole entry): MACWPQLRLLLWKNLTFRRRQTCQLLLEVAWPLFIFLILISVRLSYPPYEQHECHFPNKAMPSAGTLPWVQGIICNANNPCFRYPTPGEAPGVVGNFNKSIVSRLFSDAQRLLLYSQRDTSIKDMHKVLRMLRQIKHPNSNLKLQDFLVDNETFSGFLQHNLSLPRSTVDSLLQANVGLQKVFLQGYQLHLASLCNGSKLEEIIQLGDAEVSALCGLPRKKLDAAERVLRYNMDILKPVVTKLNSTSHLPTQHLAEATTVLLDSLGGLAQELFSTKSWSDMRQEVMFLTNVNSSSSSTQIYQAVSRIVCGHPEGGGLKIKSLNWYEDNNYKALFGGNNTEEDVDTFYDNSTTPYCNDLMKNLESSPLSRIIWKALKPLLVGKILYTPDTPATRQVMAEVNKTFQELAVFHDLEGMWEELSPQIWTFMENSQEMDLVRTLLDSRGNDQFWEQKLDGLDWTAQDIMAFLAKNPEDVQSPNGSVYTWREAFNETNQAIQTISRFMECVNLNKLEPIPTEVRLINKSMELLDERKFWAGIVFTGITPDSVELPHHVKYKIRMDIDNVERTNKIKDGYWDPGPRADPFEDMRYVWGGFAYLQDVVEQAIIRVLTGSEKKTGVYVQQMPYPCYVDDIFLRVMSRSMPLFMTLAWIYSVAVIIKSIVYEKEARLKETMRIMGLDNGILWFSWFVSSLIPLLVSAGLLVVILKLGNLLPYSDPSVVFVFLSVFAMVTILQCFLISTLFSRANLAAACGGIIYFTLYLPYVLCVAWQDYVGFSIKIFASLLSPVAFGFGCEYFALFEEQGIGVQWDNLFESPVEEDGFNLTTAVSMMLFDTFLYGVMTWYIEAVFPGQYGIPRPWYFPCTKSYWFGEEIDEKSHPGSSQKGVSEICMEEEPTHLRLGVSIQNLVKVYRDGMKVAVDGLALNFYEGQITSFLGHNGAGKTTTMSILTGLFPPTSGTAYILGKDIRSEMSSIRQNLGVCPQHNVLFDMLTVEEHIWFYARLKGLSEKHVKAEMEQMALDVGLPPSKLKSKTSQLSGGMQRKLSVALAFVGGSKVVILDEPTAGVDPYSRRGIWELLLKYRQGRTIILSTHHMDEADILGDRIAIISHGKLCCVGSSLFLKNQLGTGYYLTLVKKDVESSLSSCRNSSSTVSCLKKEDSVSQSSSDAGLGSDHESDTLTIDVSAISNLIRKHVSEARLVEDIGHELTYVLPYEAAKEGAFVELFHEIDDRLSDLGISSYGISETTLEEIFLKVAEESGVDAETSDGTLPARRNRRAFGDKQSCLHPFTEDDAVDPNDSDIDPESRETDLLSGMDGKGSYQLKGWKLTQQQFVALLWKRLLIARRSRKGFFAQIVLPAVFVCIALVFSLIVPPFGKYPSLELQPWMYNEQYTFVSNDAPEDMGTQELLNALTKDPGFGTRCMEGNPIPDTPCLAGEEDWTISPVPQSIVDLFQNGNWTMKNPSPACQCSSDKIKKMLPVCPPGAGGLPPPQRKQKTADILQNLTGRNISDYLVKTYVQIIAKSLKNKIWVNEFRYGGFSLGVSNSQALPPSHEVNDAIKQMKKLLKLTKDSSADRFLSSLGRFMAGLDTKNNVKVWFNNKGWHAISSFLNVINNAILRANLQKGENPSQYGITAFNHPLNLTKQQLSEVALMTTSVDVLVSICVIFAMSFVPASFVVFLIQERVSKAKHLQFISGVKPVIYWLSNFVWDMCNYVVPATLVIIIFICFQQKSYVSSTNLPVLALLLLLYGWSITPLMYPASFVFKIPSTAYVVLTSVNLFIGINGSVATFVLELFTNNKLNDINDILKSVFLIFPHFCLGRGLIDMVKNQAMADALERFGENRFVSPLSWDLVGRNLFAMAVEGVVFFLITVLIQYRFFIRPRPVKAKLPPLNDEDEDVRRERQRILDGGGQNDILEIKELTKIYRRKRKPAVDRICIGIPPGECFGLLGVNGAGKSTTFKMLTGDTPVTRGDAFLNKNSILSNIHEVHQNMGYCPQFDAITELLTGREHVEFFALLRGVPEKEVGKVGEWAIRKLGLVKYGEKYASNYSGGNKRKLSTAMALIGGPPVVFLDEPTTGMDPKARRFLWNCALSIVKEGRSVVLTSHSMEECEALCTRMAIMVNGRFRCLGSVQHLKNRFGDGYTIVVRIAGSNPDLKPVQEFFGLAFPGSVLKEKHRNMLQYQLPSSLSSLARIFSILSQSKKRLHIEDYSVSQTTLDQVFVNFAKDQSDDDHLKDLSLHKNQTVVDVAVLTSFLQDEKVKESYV
molecule,measurement,setting,value
CGVLESFKASFLSALEEWTKKLQ [23MJ],ROS production (mitigation),[1],did not mitigate ROS
Qβ: 30-nm spherical virus-like particle with 180 identical coat protein units (SEQ ID NO: 6),PDI (DLS),[2],0.06
same,"Zav (hydrodynamic diameter, DLS)",[2],~30.4 nm
TMV-4FN conjugate (TMV-Lys nanoparticle displaying ApoAI peptide 4FN through an SM(PEG)4 linker) (from UniProt P69687 2-157),cholesterol efflux from J774 foam cells under upregulated ABCA1 conditions (fold (against TMV-4FC)),[3],2.5
CSGGGDWFKAFYDKVAEKFKEAF [4FN],cholesterol efflux,[4]; upregulated ABCA1 conditions,most potent peptide
same,increase in wound closure after 24 h,[5],3.20 fold
B1,cholesterol efflux,[4]; upregulated ABCA1 conditions,does not display significant cholesterol efflux
same,PDI (DLS),[2],0.177
same,"Zav (hydrodynamic diameter, DLS)",[2],~40.5 nm
B2,PDI after incubation with BODIPY-cholesterol,[6],0.145
same,Zav after incubation with BODIPY-cholesterol,[6]; 2 h at 37° C. in 0.01M KP/DMSO,708.8 nm
same,change in fluorescence after BODIPY-cholesterol binding,"[6]; 480/508 nm, signal after minus before binding",most intense signal
same,PDI before incubation with BODIPY-cholesterol,[6]; cholesterol-free control,0.193
same,Zav before incubation with BODIPY-cholesterol,"[6]; cholesterol-free control, 2 h at 37° C. in 0.01M KP/DMSO",220.5 nm
same,size change / cholesterol binding on incubation with BODIPY-cholesterol,[6],greatest change
same,cholesterol efflux when ABCA1 receptor is not upregulated,"[4]; homeostatic ABCA1 conditions, FIG. 4D",drastically decreases
same,cholesterol efflux potency relative to TMV-4FC,"[4]; upregulated ABCA1 conditions, FIGS. 4B-4C",~2.5 fold
same,ROS production (mitigation),[1],reducing the ROS signal to near the level of the negative media control
same,PDI (DLS),[2],0.266
same,"Zav (hydrodynamic diameter, DLS)",[2],~255.8 nm
same,Dil-LDL cholesterol fluorescence intensity (cell-associated),[7],significantly lower
same,fluorescence intensity of 5FAM (cell-associated),[7],significantly higher
same,localization of particles on foam cells,[7],"extracellular, forming a dense layer on the plasma membrane"
same,increase in wound closure after 12 h,[5],6.41 fold
same,increase in wound closure after 24 h,[5],4.70 fold
B3,PDI after incubation with BODIPY-cholesterol,[6],0.158
same,Zav after incubation with BODIPY-cholesterol,[6]; 2 h at 37° C. in 0.01M KP/DMSO,293.6 nm
same,PDI before incubation with BODIPY-cholesterol,[6]; cholesterol-free control,0.240
same,size change / cholesterol binding on incubation with BODIPY-cholesterol,[6],inherent affinity for cholesterol
same,PDI (DLS),[2],0.230
same,"Zav (hydrodynamic diameter, DLS)",[2],~203.1 nm
same,Dil-LDL cholesterol fluorescence intensity (cell-associated),[7],promotes a baseline level of cholesterol efflux
same,localization of particles on foam cells,[7],mostly observed within the foam cells
same,increase in wound closure after 12 h,[5],2.58 fold
same,increase in wound closure after 24 h,[5],3.15 fold
